Data as given in article PMC6273323 (2016).
Non-standard residues stand in square brackets, D forms with d. No end group written: not given here. Phe(4-F) = N[C@@H](Cc1ccc(F)cc1)C(=O)O

Molecular target: T1, DF*NNN fluorinated iNOS peptide
T1 chain: D[Phe(4-F)]NNN
Experiment: SPR

B1: SPSB2 (protein)
chain: MGQTALARGSSSTPTSQALYSDFSPPEGLEELLSAPPPDLVAQRHHGWNPKDCSENIDVKEGGLCFERRPVAQSTDGVRGKRGYSRGLHAWEISWPLEQRGTHAVVGVATALAPLQADHYAALLGSNSESWGWDIGRGKLYHQSKGLEAPQYPAGPQGEQLVVPERLLVVLDMEEGTLGYSIGGTYLGPAFRGLKGRTLYPSVSAVWGQCQVRIRYMGERRVEEPQSLLHLSRLCVRHALGDTRLGQISTLPLPPAMKRYLLYK
- Kd: 3000 nM
